B1: LINE1-mini (parent)
chain: GGCAGAGCUCAACACAGCGUGGCAAAGUGGCUGUGGCUAGACUGCC

Variants of B1 are the subject of this series. Briefly: self-cleavage, relative activity (ratio to wild type); higher = more cleavage; in vitro, sequencing; the parent is a self-cleaving ribozyme.
As to G1U G36U, the self-cleavage was determined as 0.11.

On to G1U G36A, for which the self-cleavage came to 0.11.

Turning to G1U G36C, the self-cleavage stood at 0.04.

In the case of G1U C15A, the self-cleavage amounted to 0.08.

In the case of G1U C15G, the self-cleavage worked out at 0.04.

As for G1U C15U, the self-cleavage came out at 0.21.

As to G1U A14U, the self-cleavage came to 0.16.

With G1U A14C, the self-cleavage was determined as 0.03.

Take G1U A14G: the self-cleavage is 0.12.

On to G2A U28A, for which the self-cleavage was 0.32.

As to G2A U28C, the self-cleavage was found to be 0.64.

For the variant G2A U28G, the self-cleavage is 0.48.

For the variant G2A G44C, the self-cleavage turned out to be 0.56.

G2A G44U: the self-cleavage came out at 0.75.

On to G2A G44A, for which the self-cleavage is 0.49.

G2A G29U: the self-cleavage amounted to 0.9.

For the variant G2A G29C, the self-cleavage turned out to be 0.65.

For G2A G29A, the self-cleavage came to 0.61.

Regarding G2C A6C, the self-cleavage was 0.12.

On to G2C A6G, for which the self-cleavage is 0.07.

As for G2C A6U, the self-cleavage was 0.14.

With G2A U34A, the self-cleavage turned out to be 0.18.

For the variant G2A U34C, the self-cleavage amounted to 0.19.

G2A U34G: the self-cleavage stood at 0.13.

Take G2C C18G: the self-cleavage worked out at 0.05.

For G2C C18A, the self-cleavage was 0.06.

With G2C C18U, the self-cleavage came to 0.09.

Consider G2C C42U, for which the self-cleavage came to 0.07.

Consider G2C C42G, for which the self-cleavage was 0.03.

Take G2C C42A: the self-cleavage was determined as 0.08.

On to G1U C42G, for which the self-cleavage was 0.04.

Regarding G1U C42A, the self-cleavage worked out at 0.07.

As for G1U C42U, the self-cleavage stood at 0.06.

G2C C46G: the self-cleavage came to 0.16.

Turning to G2C C46U, the self-cleavage is 0.07.

On to G2C C46A, for which the self-cleavage stood at 0.09.

In the case of G1U G27A, the self-cleavage came out at 0.36.

In the case of G1U G27U, the self-cleavage is 0.25.

Regarding G1U G27C, the self-cleavage was found to be 0.27.

Take G1U U32A: the self-cleavage turned out to be 0.06.

Turning to G1U U32C, the self-cleavage was 0.08.

In the case of G1U U32G, the self-cleavage was 0.05.

G2A C13G: the self-cleavage was determined as 0.45.

Regarding G2A C13U, the self-cleavage was 0.32.

In the case of G2A C13A, the self-cleavage is 0.36.

Take G2C C15G: the self-cleavage is 0.02.

As for G2C C15A, the self-cleavage is 0.06.

For G2C C15U, the self-cleavage stood at 0.11.

Turning to G2C C37A, the self-cleavage worked out at 0.06.

As to G2C C37G, the self-cleavage came to 0.05.

In the case of G2C C37U, the self-cleavage amounted to 0.06.

As to G2A A14C, the self-cleavage worked out at 0.15.

Regarding G2A A14U, the self-cleavage turned out to be 0.37.

On to G2A A14G, for which the self-cleavage came out at 0.81.

For the variant G1U G33U, the self-cleavage came out at 0.06.

With G1U G33C, the self-cleavage was found to be 0.03.

In the case of G1U G33A, the self-cleavage came to 0.04.

On to G1U G19A, for which the self-cleavage came to 0.57.

G1U G19U: the self-cleavage stood at 0.11.

For the variant G1U G19C, the self-cleavage came to 0.2.

Regarding G2C C31U, the self-cleavage was 0.08.

Turning to G2C C31A, the self-cleavage was determined as 0.07.

As for G2C C31G, the self-cleavage was 0.06.

In the case of G1U G17C, the self-cleavage worked out at 0.05.

G1U G17U: the self-cleavage was 0.06.

Take G1U G17A: the self-cleavage stood at 0.1.

Consider G2A G36C, for which the self-cleavage was 0.28.

In the case of G2A G36A, the self-cleavage stood at 0.69.

As for G2A G36U, the self-cleavage stood at 0.19.

For G2A C37A, the self-cleavage turned out to be 0.35.

As to G2A C37G, the self-cleavage was 0.13.

As for G2A C37U, the self-cleavage was found to be 0.28.

Consider G2C C23G, for which the self-cleavage was 0.12.

With G2C C23U, the self-cleavage is 0.16.

Regarding G2C C23A, the self-cleavage is 0.08.

Turning to G1U G30C, the self-cleavage was 0.27.

G1U G30A: the self-cleavage was determined as 0.43.

In the case of G1U G30U, the self-cleavage amounted to 0.59.

In the case of G2C A14U, the self-cleavage was found to be 0.08.

Take G2C A14G: the self-cleavage was determined as 0.03.

Regarding G2C A14C, the self-cleavage came out at 0.06.

Take G2C A16U: the self-cleavage came out at 0.04.

On to G2C A16G, for which the self-cleavage is 0.09.

Regarding G2C A16C, the self-cleavage worked out at 0.02.

As for G2A C45A, the self-cleavage is 1.08.

Turning to G2A C45G, the self-cleavage was determined as 0.75.

Take G1U U34G: the self-cleavage is 0.06.

Regarding G1U U34C, the self-cleavage is 0.06.

With G1U U34A, the self-cleavage worked out at 0.05.

In the case of G2C A24G, the self-cleavage came out at 0.09.

Regarding G2C A24C, the self-cleavage came out at 0.06.

For G2C A24U, the self-cleavage was found to be 0.15.

As to G2A G40C, the self-cleavage was 0.12.

In the case of G2A G40A, the self-cleavage was found to be 0.35.

Take G2A G40U: the self-cleavage worked out at 0.29.

For G1U C23G, the self-cleavage is 0.24.

Turning to G1U C23A, the self-cleavage came out at 0.36.

For G1U C23U, the self-cleavage came out at 0.31.

For the variant G2C C10A, the self-cleavage turned out to be 0.03.

With G2C C10U, the self-cleavage was determined as 0.03.

Take G2C C10G: the self-cleavage is 0.03.

Regarding G2A G17U, the self-cleavage worked out at 0.19.

For the variant G2A G17C, the self-cleavage was 0.32.

Consider G2A G17A, for which the self-cleavage is 0.2.

On to G2A C42U, for which the self-cleavage came to 0.44.

Regarding G2A C42A, the self-cleavage came out at 0.36.

Consider G2A C42G, for which the self-cleavage was 0.34.

G2A G21C: the self-cleavage was 0.46.

Turning to G2A G21U, the self-cleavage is 0.89.

In the case of G2A G21A, the self-cleavage amounted to 2.98.

As to G1U U38C, the self-cleavage was determined as 0.2.

Take G1U U38A: the self-cleavage was found to be 0.13.

For G1U U38G, the self-cleavage came to 0.03.

On to G2A C31U, for which the self-cleavage came out at 0.25.

G2A C31G: the self-cleavage amounted to 0.14.

Regarding G2A C31A, the self-cleavage came to 0.23.

As to G1U A41U, the self-cleavage stood at 0.33.

With G1U A41G, the self-cleavage amounted to 0.1.

As for G1U A41C, the self-cleavage worked out at 0.05.

In the case of G1U A39U, the self-cleavage worked out at 0.2.

G1U A39G: the self-cleavage was 0.05.

With G1U A39C, the self-cleavage is 0.09.

Regarding G2A C10A, the self-cleavage is 0.07.

With G2A C10U, the self-cleavage was 0.41.

In the case of G2A C10G, the self-cleavage came out at 0.11.

With G2C A11G, the self-cleavage turned out to be 0.02.

G2C A11U: the self-cleavage was found to be 0.03.

As to G2C A11C, the self-cleavage is 0.02.

G2A A11U: the self-cleavage was determined as 0.12.

On to G2A A11C, for which the self-cleavage amounted to 0.05.

For G2A A11G, the self-cleavage was 0.08.

Consider G2A A16C, for which the self-cleavage was 0.16.

As for G2A A16G, the self-cleavage is 0.26.

For G2A A16U, the self-cleavage is 0.33.

With G2C, the self-cleavage came out at 0.13.

Take G2A: the self-cleavage came out at 0.92.

Take G2A G22A: the self-cleavage stood at 0.8.

On to G2A G22C, for which the self-cleavage was 0.29.

Consider G2A G22U, for which the self-cleavage amounted to 0.89.

For G2C C45G, the self-cleavage came to 0.61.

Turning to G2C C45U, the self-cleavage turned out to be 0.19.

G2C C45A: the self-cleavage came to 0.25.

For the variant G1U A25C, the self-cleavage stood at 0.21.

Regarding G1U A25G, the self-cleavage came to 0.21.

With G1U A25U, the self-cleavage came out at 0.45.

For G1U A11U, the self-cleavage turned out to be 0.07.

In the case of G1U G40A, the self-cleavage was determined as 0.04.

For G1U G40U, the self-cleavage amounted to 0.08.

For the variant G1U G40C, the self-cleavage is 0.04.

In the case of G1U G2U, the self-cleavage stood at 0.13.

Take G1U G2A: the self-cleavage came to 0.38.

Take G1U G2C: the self-cleavage is 0.16.

Regarding G1U C31G, the self-cleavage stood at 0.04.

For the variant G1U C31A, the self-cleavage was found to be 0.07.

For the variant G1U C31U, the self-cleavage is 0.07.

Take G1U C3U: the self-cleavage stood at 0.27.

As to G1U C3G, the self-cleavage stood at 0.25.

In the case of G1U C3A, the self-cleavage came out at 0.85.

Take G2A A41G: the self-cleavage worked out at 0.4.

For G2A A41U, the self-cleavage turned out to be 0.66.

With G2A A41C, the self-cleavage is 0.08.

Take G2A C46A: the self-cleavage is 1.23.

For the variant G2A C46U, the self-cleavage came to 0.87.

G2A C46G: the self-cleavage worked out at 0.96.

For G1U A24C, the self-cleavage is 0.36.

Regarding G1U A24U, the self-cleavage is 0.32.

Consider G1U A24G, for which the self-cleavage came to 0.25.
